Results on eight variants are retold here after IntAct's records for PubMed 31515488.

To fix the notation:
B1: E3 ubiquitin-protein ligase TRIM69 (Homo sapiens), Q86WT6 (parent)
chain: MEVSTNPSSNIDPGDYVEMNDSITHLPSKVVIQDITMELHCPLCNDWFRDPLMLSCGHNFCEACIQDFWRLQAKETFCPECKMLCQYNNCTFNPVLDKLVEKIKKLPLLKGHPQCPEHGENLKLFSKPDGKLICFQCKDARLSVGQSKEFLQISDAVHFFTEELAIQQGQLETTLKELQTLRNMQKEAIAAHKENKLHLQQHVSMEFLKLHQFLHSKEKDILTELREEGKALNEEMELNLSQLQEQCLLAKDMLVSIQAKTEQQNSFDFLKDITTLLHSLEQGMKVLATRELISRKLNLGQYKGPIQYMVWREMQDTLCPGLSPLTLDPKTAHPNLVLSKSQTSVWHGDIKKIMPDDPERFDSSVAVLGSRGFTSGKWYWEVEVAKKTKWTVGVVRESIIRKGSCPLTPEQGFWLLRLRNQTDLKALDLPSFSLTLTNNLDKVGIYLDYEGGQLSFYNAKTMTHIYTFSNTFMEKLYPYFCPCLNDGGENKEPLHILHPQ
B2: 5-phosphohydroxy-L-lysine phospho-lyase (Homo sapiens), Q8IUZ5 (parent)
chain: MAADQRPKADTLALRQRLISSSCRLFFPEDPVKIVRAQGQYMYDEQGAEYIDCISNVAHVGHCHPLVVQAAHEQNQVLNTNSRYLHDNIVDYAQRLSETLPEQLCVFYFLNSGSEANDLALRLARHYTGHQDVVVLDHAYHGHLSSLIDISPYKFRNLDGQKEWVHVAPLPDTYRGPYREDHPNPAMAYANEVKRVVSSAQEKGRKIAAFFAESLPSVGGQIIPPAGYFSQVAEHIRKAGGVFVADEIQVGFGRVGKHFWAFQLQGKDFVPDIVTMGKSIGNGHPVACVAATQPVARAFEATGVEYFNTFGGSPVSCAVGLAVLNVLEKEQLQDHATSVGSFLMQLLGQQKIKHPIVGDVRGVGLFIGVDLIKDEATRTPATEEAAYLVSRLKENYVLLSTDGPGRNILKFKPPMCFSLDNARQVVAKLDAILTDMEEKVRSCETLRLQP
partner: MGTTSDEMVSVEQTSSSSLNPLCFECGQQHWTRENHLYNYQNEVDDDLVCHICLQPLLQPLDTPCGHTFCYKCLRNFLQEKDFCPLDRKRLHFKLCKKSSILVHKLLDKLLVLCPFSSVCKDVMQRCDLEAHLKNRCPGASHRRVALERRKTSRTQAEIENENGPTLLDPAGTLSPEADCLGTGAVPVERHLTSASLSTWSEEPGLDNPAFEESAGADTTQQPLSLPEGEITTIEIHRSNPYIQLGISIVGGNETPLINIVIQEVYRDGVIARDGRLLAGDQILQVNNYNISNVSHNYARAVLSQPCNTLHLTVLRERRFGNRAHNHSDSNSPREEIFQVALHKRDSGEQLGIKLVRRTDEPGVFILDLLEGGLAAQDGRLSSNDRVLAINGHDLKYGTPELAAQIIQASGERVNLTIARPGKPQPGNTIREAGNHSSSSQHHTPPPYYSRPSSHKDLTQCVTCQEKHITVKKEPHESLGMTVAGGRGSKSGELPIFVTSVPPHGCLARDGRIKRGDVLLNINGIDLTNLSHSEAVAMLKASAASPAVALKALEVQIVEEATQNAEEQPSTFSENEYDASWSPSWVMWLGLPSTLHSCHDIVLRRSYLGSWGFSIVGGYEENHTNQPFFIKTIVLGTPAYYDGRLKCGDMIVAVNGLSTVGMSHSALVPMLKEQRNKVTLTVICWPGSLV
B3: Four and a half LIM domains protein 2 (Homo sapiens), Q14192 (parent)
chain: MTERFDCHHCNESLFGKKYILREESPYCVVCFETLFANTCEECGKPIGCDCKDLSYKDRHWHEACFHCSQCRNSLVDKPFAAKEDQLLCTDCYSNEYSSKCQECKKTIMPGTRKMEYKGSSWHETCFICHRCQQPIGTKSFIPKDNQNFCVPCYEKQHAMQCVQCKKPITTGGVTYREQPWHKECFVCTACRKQLSGQRFTARDDFAYCLNCFCDLYAKKCAGCTNPISGLGGTKYISFEERQWHNDCFNCKKCSLSLVGRGFLTERDDILCPDCGKDI
partner: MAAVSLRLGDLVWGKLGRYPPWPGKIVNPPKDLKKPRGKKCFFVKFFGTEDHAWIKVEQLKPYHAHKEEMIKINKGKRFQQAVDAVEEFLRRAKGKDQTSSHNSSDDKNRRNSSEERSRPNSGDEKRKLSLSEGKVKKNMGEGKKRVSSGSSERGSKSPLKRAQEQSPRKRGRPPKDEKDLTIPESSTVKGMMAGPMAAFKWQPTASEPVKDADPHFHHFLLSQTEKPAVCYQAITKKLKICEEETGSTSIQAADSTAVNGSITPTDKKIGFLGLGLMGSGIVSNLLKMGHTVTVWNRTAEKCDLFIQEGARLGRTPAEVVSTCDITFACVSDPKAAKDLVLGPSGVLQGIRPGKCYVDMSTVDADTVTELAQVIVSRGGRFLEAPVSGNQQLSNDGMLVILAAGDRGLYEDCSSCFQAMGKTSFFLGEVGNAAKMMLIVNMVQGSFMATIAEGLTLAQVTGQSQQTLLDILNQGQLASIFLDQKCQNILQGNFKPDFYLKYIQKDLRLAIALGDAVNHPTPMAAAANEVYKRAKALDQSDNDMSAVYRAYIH
B4: Kinetochore protein NDC80 homolog (Homo sapiens), O14777 (parent)
chain: MKRSSVSSGGAGRLSMQELRSQDVNKQGLYTPQTKEKPTFGKLSINKPTSERKVSLFGKRTSGHGSRNSQLGIFSSSEKIKDPRPLNDKAFIQQCIRQLCEFLTENGYAHNVSMKSLQAPSVKDFLKIFTFLYGFLCPSYELPDTKFEEEVPRIFKDLGYPFALSKSSMYTVGAPHTWPHIVAALVWLIDCIKIHTAMKESSPLFDDGQPWGEETEDGIMHNKLFLDYTIKCYESFMSGADSFDEMNAELQSKLKDLFNVDAFKLESLEAKNRALNEQIARLEQEREKEPNRLESLRKLKASLQGDVQKYQAYMSNLESHSAILDQKLNGLNEEIARVELECETIKQENTRLQNIIDNQKYSVADIERINHERNELQQTINKLTKDLEAEQQKLWNEELKYARGKEAIETQLAEYHKLARKLKLIPKGAENSKGYDFEIKFNPEAGANCLVKYRAQVYVPLKELLNETEEEINKALNKKMGLEDTLEQLNAMITESKRSVRTLKEEVQKLDDLYQQKIKEAEEEDEKCASELESLEKHKHLLESTVNQGLSEAMNELDAVQREYQLVVQTTTEERRKVGNNLQRLLEMVATHVGSVEKHLEEQIAKVDREYEECMSEDLSENIKEIRDKYEKKATLIKSSEE
partner: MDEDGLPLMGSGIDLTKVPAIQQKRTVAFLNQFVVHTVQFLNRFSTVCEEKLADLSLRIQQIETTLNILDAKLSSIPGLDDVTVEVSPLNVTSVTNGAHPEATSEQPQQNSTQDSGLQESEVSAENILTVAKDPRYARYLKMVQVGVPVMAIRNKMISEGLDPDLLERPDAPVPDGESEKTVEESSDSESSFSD

In one assay the parent is B1. To be noted: with at5g1_human ATP5MC1, P05496.
Chain of at5g1_human ATP5MC1, P05496 (P05496 whole entry): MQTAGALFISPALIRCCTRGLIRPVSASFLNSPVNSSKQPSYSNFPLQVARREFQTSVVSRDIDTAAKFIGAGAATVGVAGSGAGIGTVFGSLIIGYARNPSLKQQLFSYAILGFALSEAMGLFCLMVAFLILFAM
Consider A190V, for which the “effect of a mutation on the interaction” value is recorded as “with no effect”.

Regarding N239K, the “effect of a mutation on the interaction” value is given as “disrupting interaction strength”.

Turning to Q301H, the “effect of a mutation on the interaction” value is recorded as “with no effect”.

Regarding I399F, the “effect of a mutation on the interaction” value is reported as “with no effect”.

Variants of B1 are the subject of another assay. To be noted: with maga4_human MAGEA4, P43358.
Chain of maga4_human MAGEA4, P43358 (P43358 whole entry): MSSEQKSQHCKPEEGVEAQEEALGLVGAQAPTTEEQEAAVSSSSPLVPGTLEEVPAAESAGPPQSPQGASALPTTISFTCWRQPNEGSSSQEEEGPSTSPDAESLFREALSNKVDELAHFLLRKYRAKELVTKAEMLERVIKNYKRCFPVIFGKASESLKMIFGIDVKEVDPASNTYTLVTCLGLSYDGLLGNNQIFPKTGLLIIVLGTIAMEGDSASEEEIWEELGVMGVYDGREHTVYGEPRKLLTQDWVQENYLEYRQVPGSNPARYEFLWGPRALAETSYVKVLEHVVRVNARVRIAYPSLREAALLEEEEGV
Consider A190V, for which the “effect of a mutation on the interaction” value is reported as “with no effect”.

For N239K, the “effect of a mutation on the interaction” value is “with no effect”.

On to Q301H, for which the “effect of a mutation on the interaction” value was “with no effect”.

Take I399F: the “effect of a mutation on the interaction” value is on record as “with no effect”.

In the next assay the parent is B2. The settings on record: with lnx2_human LNX2, Q8N448.
Take H126R: the “effect of a mutation on the interaction” value is listed as “with no effect”.

The variants in the next assay derive from B3. To be noted: with glyr1_human GLYR1, Q49A26.
N95K: the “effect of a mutation on the interaction” value is given as “with no effect”.

Turning to A37S, the “effect of a mutation on the interaction” value was “with no effect”.

In the next assay the parent is B4. To be noted: with wasc3_human WASHC3, Q9Y3C0.
With S55P, the “effect of a mutation on the interaction” value is given as “with no effect”.
